The values that follow come from publication PMC9546572 (Proceedings of the National Academy of Sciences of the …, 2022).

Read-outs that look alike come from different tables or passages of the source.

Common to all, as to assay: cryo-EM structure
The target of data set [1] is major capsid protein gp23* (cleaved form of gp23) of bacteriophage T4 (bacteriophage T4).
Data set [2] deals with the molecule itself.
Data set [3] deals with the molecule itself. This is another data set of the same source.

On to “major capsid protein gp23* (cleaved form of gp23) of bacteriophage T4 (natural protein)”, for which the stoichiometry N in data set [1] was found to be 6.

B1: Soc (small outer capsid protein) of bacteriophage T4 (natural protein, UniProt P03715 1-80, looked up)
chain: MASTRGYVNIKTFEQKLDGNKKIEGKEISVAFPLYSDVHKISGAHYQTFPSEKAAYSTVYEENQRTEWIAANEDLWKVTG
Regarding B1, the “stoichiometry N” value in the data set “cryo-EM structure [2]” turned out to be 3.

B2: vertex protein gp24* (cleaved form of gp24) of bacteriophage T4 (natural protein, UniProt P19896 11-427, looked up)
chain: STTTNSNSIGRPNLVALTRATTKLIYSDIVATQRTNQPVAAFYGIKYLNPDNEFTFKTGATYAGEAGYVDREQITELTEESKLTLNKGDLFKYNNIVYKVLEDTPFATIEESDLELALQIAIVLLKVRLFSDAASTSKFESSDSEIADARFQINKWQTAVKSRKLKTGITVELAQDLEANGFDAPNFLEDLLATEMADEINKDILQSLITVSKRYKVTGITDSGFIDLSYASAPEAGRSLYRMVCEMVSHIQKESTYTATFCVASARAAAILAASGWLKHKPEDDKYLSQNAYGFLANGLPLYCDTNSPLDYVIVGVVENIGEKEIVGSIFYAPYTEGLDLDDPEHVGAFKVVVDPESLQPSIGLLVRYALSANPYTVAKDEKEARIIDGGDMDKMAGRSDLSVLLGVKLPKIIIDE
Turning to B2, in “cryo-EM structure [3]”, the “stoichiometry N” value came out at 5.
